Here are results for eleven molecules from US20220372155A1 (LYVGEN BIOPHARMA, published 2022).

The chains are these.
B1: Ly419 (bispecific antibody, human IgG1, kappa)
heavy: EVQLVESGGGVVQPGRSLRLSCSASGFDFTTYWMSWVRQAPGKGLEWIGEIHPDSSTINYAPSLKDRFTISRDNAKNTLFLQMDSLRPEDTGVYFCASLYFGFPWFAYWGQGTPVTVSSASTKGPSVFPLAPSSKSTSGGTAALGCLVKDYFPEPVTVSWNSGALTSGVHTFPAVLQSSGLYSLSSVVTVPSSSLGTQTYICNVNHKPSNTKVDKKVEPKSCDKTHTCPPCPAPELLGPSVFLFPPKPKDTLMISRTPEVTCVVVDVSHEDPEVKFNWYVDGVEVHNAKTKPREEQYNSTYRVVSVLTVLHQDWLNGKEYKCKVSNKALPAPIEKTISKAKGQPREPQVYTLPPSREEMTKNQVSLTCLVKGFYPSDIAVEWESNGQPENNYKTTPPVLDSDGSFFLYSKLTVDKSRWQQGNVFSCSVMHEALHNHYTQKSLSLSPGK
light: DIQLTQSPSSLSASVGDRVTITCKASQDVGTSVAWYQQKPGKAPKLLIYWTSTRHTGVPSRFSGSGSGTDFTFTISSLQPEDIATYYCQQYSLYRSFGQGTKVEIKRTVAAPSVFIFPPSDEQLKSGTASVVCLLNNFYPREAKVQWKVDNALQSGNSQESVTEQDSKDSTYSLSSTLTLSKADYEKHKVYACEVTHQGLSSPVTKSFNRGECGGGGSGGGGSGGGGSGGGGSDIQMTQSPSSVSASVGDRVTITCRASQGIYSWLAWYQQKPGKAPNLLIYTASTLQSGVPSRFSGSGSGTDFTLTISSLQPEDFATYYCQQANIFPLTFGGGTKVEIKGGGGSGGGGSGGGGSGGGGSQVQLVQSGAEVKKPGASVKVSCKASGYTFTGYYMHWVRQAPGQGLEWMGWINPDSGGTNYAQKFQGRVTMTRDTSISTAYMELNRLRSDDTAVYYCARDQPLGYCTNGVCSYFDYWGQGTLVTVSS
notes: Ly311 HC (IgG1 mutated Fc) + Ly311 LC-Ly253 scFv VL-VH
B2: Ly420 (bispecific antibody, human IgG1, kappa)
heavy: EVQLVESGGGVVQPGRSLRLSCSASGFDFTTYWMSWVRQAPGKGLEWIGEIHPDSSTINYAPSLKDRFTISRDNAKNTLFLQMDSLRPEDTGVYFCASLYFGFPWFAYWGQGTPVTVSSASTKGPSVFPLAPSSKSTSGGTAALGCLVKDYFPEPVTVSWNSGALTSGVHTFPAVLQSSGLYSLSSVVTVPSSSLGTQTYICNVNHKPSNTKVDKKVEPKSCDKTHTCPPCPAPELLGPSVFLFPPKPKDTLMISRTPEVTCVVVDVSHEDPEVKFNWYVDGVEVHNAKTKPREEQYNSTYRVVSVLTVLHQDWLNGKEYKCKVSNKALPAPIEKTISKAKGQPREPQVYTLPPSREEMTKNQVSLTCLVKGFYPSDIAVEWESNGQPENNYKTTPPVLDSDGSFFLYSKLTVDKSRWQQGNVFSCSVMHEALHNHYTQKSLSLSPGK
light: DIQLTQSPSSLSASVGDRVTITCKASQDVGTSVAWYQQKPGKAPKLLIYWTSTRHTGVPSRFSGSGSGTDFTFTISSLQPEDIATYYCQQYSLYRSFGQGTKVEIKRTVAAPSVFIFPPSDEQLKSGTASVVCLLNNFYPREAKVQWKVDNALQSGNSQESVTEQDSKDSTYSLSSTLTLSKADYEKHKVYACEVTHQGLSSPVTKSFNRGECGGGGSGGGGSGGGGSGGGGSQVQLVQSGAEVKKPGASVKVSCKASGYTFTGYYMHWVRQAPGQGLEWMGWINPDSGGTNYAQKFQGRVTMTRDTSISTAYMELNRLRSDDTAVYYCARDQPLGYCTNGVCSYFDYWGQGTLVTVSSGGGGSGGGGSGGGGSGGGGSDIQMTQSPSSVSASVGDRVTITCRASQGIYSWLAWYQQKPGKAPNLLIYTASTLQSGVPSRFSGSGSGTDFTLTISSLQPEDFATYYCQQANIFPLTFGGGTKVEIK
notes: Ly311 HC (IgG1 mutated Fc) + Ly311 LC-Ly253 scFv VH-VL
B3: Ly416 (bispecific antibody, human IgG1, kappa)
heavy: EVQLVESGGGLVQPGGSLRLSCAASGFNIKDTYMHWVRQAPGKGLEWVARIDPANGNSKYADSVKGRFTISADTSKNTAYLQMNSLRAEDTAVYYCAPFGYYVSDYAMAYWGQGTLVTVSSASTKGPSVFPLAPSSKSTSGGTAALGCLVKDYFPEPVTVSWNSGALTSGVHTFPAVLQSSGLYSLSSVVTVPSSSLGTQTYICNVNHKPSNTKVDKKVEPKSCDKTHTCPPCPAPELLGPSVFLFPPKPKDTLMISRTPEVTCVVVDVSHEDPEVKFNWYVDGVEVHNAKTKPREEQYNSTYRVVSVLTVLHQDWLNGKEYKCKVSNKALPAPIEKTISKAKGQPREPQVYTLPPSREEMTKNQVSLTCLVKGFYPSDIAVEWESNGQPENNYKTTPPVLDSDGSFFLYSKLTVDKSRWQQGNVFSCSVMHEALHNHYTQKSLSLSPGK
light: DIQLTQSPSSLSASVGDRVTITCRAGESVDIFGVGFLHWYQQKPGKAPKLLIYRASNLESGVPSRFSGSGSRTDFTLTISSLQPEDFATYYCQQTNEDPYTFGQGTKVEIKRTVAAPSVFIFPPSDEQLKSGTASVVCLLNNFYPREAKVQWKVDNALQSGNSQESVTEQDSKDSTYSLSSTLTLSKADYEKHKVYACEVTHQGLSSPVTKSFNRGECGGGGSGGGGSGGGGSGGGGSEVQLVESGGGLVQPGGSLRLSCAASGFTFTNYGLHWVRQAPGKGLEWVSSISPSGGVTYYRDSVKGRFTISRDNSKNTLYLQMNSLRAEDTAVYYCAKPFLGWGGANWIAHWGQGTLVTVSSGGGGSGGGGSGGGGSGGGGSDIQMTQSPSSLSASVGDRVTITCLASEDISNDLAWYQQKPGKAPKLLIYFVDRLLDGVPSRFSGSGSGTDFTLTISSLQPEDFATYYCQQSYKYPPTFGQGTKLEIK
notes: Ly312 HC (IgG1 mutated Fc) + Ly312 LC-TM559 scFv VH-VL
B4: Ly424 (bispecific antibody, human IgG1, kappa)
heavy: EVQLVESGGGLVQPGGSLRLSCAASGFNIKDTYMHWVRQAPGKGLEWVARIDPANGNSKYADSVKGRFTISADTSKNTAYLQMNSLRAEDTAVYYCAPFGYYVSDYAMAYWGQGTLVTVSSASTKGPSVFPLAPSSKSTSGGTAALGCLVKDYFPEPVTVSWNSGALTSGVHTFPAVLQSSGLYSLSSVVTVPSSSLGTQTYICNVNHKPSNTKVDKKVEPKSCDKTHTCPPCPAPELLGPSVFLFPPKPKDTLMISRTPEVTCVVVDVSHEDPEVKFNWYVDGVEVHNAKTKPREEQYNSTYRVVSVLTVLHQDWLNGKEYKCKVSNKALPAPIEKTISKAKGQPREPQVYTLPPSREEMTKNQVSLTCLVKGFYPSDIAVEWESNGQPENNYKTTPPVLDSDGSFFLYSKLTVDKSRWQQGNVFSCSVMHEALHNHYTQKSLSLSPGK
light: not shown
notes: Ly312 HC (IgG1 mutated Fc) + Ly312 LC-Ly253 scFv VH-VL
B5: Ly423 (bispecific antibody, human IgG1, kappa)
heavy: EVQLVESGGGLVQPGGSLRLSCAASGFNIKDTYMHWVRQAPGKGLEWVARIDPANGNSKYADSVKGRFTISADTSKNTAYLQMNSLRAEDTAVYYCAPFGYYVSDYAMAYWGQGTLVTVSSASTKGPSVFPLAPSSKSTSGGTAALGCLVKDYFPEPVTVSWNSGALTSGVHTFPAVLQSSGLYSLSSVVTVPSSSLGTQTYICNVNHKPSNTKVDKKVEPKSCDKTHTCPPCPAPELLGPSVFLFPPKPKDTLMISRTPEVTCVVVDVSHEDPEVKFNWYVDGVEVHNAKTKPREEQYNSTYRVVSVLTVLHQDWLNGKEYKCKVSNKALPAPIEKTISKAKGQPREPQVYTLPPSREEMTKNQVSLTCLVKGFYPSDIAVEWESNGQPENNYKTTPPVLDSDGSFFLYSKLTVDKSRWQQGNVFSCSVMHEALHNHYTQKSLSLSPGK
light: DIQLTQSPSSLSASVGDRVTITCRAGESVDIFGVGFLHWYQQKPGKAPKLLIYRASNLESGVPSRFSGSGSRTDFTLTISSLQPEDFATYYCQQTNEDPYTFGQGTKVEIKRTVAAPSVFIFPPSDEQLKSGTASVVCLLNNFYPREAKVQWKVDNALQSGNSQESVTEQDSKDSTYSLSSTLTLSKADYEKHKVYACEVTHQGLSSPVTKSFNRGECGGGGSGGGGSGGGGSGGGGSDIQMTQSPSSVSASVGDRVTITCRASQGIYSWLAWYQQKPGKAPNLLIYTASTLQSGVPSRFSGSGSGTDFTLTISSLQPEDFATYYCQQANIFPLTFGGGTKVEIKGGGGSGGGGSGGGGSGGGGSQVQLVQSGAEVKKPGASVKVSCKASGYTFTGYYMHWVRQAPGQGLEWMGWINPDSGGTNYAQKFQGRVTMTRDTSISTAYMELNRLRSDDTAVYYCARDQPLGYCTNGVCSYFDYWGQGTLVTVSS
notes: Ly312 HC (IgG1 mutated Fc) + Ly312 LC-Ly253 scFv VL-VH
B6: Ly462 (bispecific antibody, human IgG1, kappa)
heavy: QVQLKESGPGLVAPSQSLSITCTVSGFSLTDYGVRWIRQPPGKGLEWLGVIWGGGSTYYNSALKSRLSISKDNSKSQVFLKMNSLQTDDTAMYYCAKEKRRGYYYAMDYWGQGTSVTVSSASTKGPSVFPLAPSSKSTSGGTAALGCLVKDYFPEPVTVSWNSGALTSGVHTFPAVLQSSGLYSLSSVVTVPSSSLGTQTYICNVNHKPSNTKVDKKVEPKSCDKTHTCPPCPAPELLGPSVFLFPPKPKDTLMISRTPEVTCVVVDVSHEDPEVKFNWYVDGVEVHNAKTKPREEQYNSTYRVVSVLTVLHQDWLNGKEYKCKVSNKALPAPIEKTISKAKGQPREPQVYTLPPSREEMTKNQVSLTCLVKGFYPSDIAVEWESNGQPENNYKTTPPVLDSDGSFFLYSKLTVDKSRWQQGNVFSCSVMHEALHNHYTQKSLSLSPGGGGGSGGGGSGGGGSGGGGSDIQMTQSPSSLSASVGDRVTITCKASQNIYIYLNWYQQKPGKAPKLLIYNTNNLQTGVPSRFSGSGSGTDFTLTISSLQPEDFATYYCLQHSSRRTFGGGTKVEIKGGGGSGGGGSGGGGSGGGGSQVQLVESGGGLVQPGGSLKLSCATSGFNFNDYFMNWVRQASGKGLEWVGQIRNKNYNYATYYTESLEGRVTISRDDSKNTAYLQMNSLKTEDTAVYYCTSYYYDGFADYFDYWGQGTTVTVSS
light: ENVLTQSPAIMSASPGEKVTMTCRASSSVSSSYLHWYQQKSGASPKLWIYSTSNLASGVPARFSGSGSGTSYSLTISSVEAEDAATYYCQQYSGYPLTFGGGTKLEIKRTVAAPSVFIFPPSDEQLKSGTASVVCLLNNFYPREAKVQWKVDNALQSGNSQESVTEQDSKDSTYSLSSTLTLSKADYEKHKVYACEVTHQGLSSPVTKSFNRGEC
notes: Ly368 HC-TM740 scFv VL-VH + Ly368 LC
B7: Ly463 (bispecific antibody, human IgG1, kappa)
heavy: QVQLKESGPGLVAPSQSLSITCTVSGFSLTDYGVRWIRQPPGKGLEWLGVIWGGGSTYYNSALKSRLSISKDNSKSQVFLKMNSLQTDDTAMYYCAKEKRRGYYYAMDYWGQGTSVTVSSASTKGPSVFPLAPSSKSTSGGTAALGCLVKDYFPEPVTVSWNSGALTSGVHTFPAVLQSSGLYSLSSVVTVPSSSLGTQTYICNVNHKPSNTKVDKKVEPKSCDKTHTCPPCPAPELLGPSVFLFPPKPKDTLMISRTPEVTCVVVDVSHEDPEVKFNWYVDGVEVHNAKTKPREEQYNSTYRVVSVLTVLHQDWLNGKEYKCKVSNKALPAPIEKTISKAKGQPREPQVYTLPPSREEMTKNQVSLTCLVKGFYPSDIAVEWESNGQPENNYKTTPPVLDSDGSFFLYSKLTVDKSRWQQGNVFSCSVMHEALHNHYTQKSLSLSPGGGGGSGGGGSGGGGSGGGGSQVQLVESGGGLVQPGGSLKLSCATSGFNFNDYFMNWVRQASGKGLEWVGQIRNKNYNYATYYTESLEGRVTISRDDSKNTAYLQMNSLKTEDTAVYYCTSYYYDGFADYFDYWGQGTTVTVSSGGGGSGGGGSGGGGSGGGGSDIQMTQSPSSLSASVGDRVTITCKASQNIYIYLNWYQQKPGKAPKLLIYNTNNLQTGVPSRFSGSGSGTDFTLTISSLQPEDFATYYCLQHSSRRTFGGGTKVEIK
light: ENVLTQSPAIMSASPGEKVTMTCRASSSVSSSYLHWYQQKSGASPKLWIYSTSNLASGVPARFSGSGSGTSYSLTISSVEAEDAATYYCQQYSGYPLTFGGGTKLEIKRTVAAPSVFIFPPSDEQLKSGTASVVCLLNNFYPREAKVQWKVDNALQSGNSQESVTEQDSKDSTYSLSSTLTLSKADYEKHKVYACEVTHQGLSSPVTKSFNRGEC
notes: Ly368 HC-TM740 scFv VH-VL + Ly368 LC
B8: Ly417 (bispecific antibody, human IgG1, kappa)
heavy: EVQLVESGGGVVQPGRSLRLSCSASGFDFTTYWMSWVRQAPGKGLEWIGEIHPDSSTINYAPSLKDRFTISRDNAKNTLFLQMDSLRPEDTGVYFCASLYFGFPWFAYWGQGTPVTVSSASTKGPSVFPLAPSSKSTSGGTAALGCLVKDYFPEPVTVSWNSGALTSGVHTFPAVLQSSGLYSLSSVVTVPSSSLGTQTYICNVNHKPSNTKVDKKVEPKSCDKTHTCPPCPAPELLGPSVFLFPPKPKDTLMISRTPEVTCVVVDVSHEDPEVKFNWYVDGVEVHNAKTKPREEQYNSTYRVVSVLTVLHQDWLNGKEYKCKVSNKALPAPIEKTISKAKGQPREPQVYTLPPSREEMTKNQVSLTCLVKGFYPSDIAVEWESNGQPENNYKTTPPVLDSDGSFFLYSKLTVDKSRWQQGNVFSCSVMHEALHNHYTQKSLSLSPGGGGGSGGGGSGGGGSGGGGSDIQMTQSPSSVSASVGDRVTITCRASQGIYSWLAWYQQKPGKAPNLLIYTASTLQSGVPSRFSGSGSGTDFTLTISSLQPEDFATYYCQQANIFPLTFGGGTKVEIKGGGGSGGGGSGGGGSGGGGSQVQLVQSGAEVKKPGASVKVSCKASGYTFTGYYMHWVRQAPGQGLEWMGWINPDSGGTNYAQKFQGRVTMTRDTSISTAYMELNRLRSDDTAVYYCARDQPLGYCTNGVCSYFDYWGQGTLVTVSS
light: DIQLTQSPSSLSASVGDRVTITCKASQDVGTSVAWYQQKPGKAPKLLIYWTSTRHTGVPSRFSGSGSGTDFTFTISSLQPEDIATYYCQQYSLYRSFGQGTKVEIKRTVAAPSVFIFPPSDEQLKSGTASVVCLLNNFYPREAKVQWKVDNALQSGNSQESVTEQDSKDSTYSLSSTLTLSKADYEKHKVYACEVTHQGLSSPVTKSFNRGEC
notes: Ly311 HC (IgG1 mutated Fc)-Ly253 scFv VL-VH + Ly311 LC
B9: Ly418 (bispecific antibody, human IgG1, kappa)
heavy: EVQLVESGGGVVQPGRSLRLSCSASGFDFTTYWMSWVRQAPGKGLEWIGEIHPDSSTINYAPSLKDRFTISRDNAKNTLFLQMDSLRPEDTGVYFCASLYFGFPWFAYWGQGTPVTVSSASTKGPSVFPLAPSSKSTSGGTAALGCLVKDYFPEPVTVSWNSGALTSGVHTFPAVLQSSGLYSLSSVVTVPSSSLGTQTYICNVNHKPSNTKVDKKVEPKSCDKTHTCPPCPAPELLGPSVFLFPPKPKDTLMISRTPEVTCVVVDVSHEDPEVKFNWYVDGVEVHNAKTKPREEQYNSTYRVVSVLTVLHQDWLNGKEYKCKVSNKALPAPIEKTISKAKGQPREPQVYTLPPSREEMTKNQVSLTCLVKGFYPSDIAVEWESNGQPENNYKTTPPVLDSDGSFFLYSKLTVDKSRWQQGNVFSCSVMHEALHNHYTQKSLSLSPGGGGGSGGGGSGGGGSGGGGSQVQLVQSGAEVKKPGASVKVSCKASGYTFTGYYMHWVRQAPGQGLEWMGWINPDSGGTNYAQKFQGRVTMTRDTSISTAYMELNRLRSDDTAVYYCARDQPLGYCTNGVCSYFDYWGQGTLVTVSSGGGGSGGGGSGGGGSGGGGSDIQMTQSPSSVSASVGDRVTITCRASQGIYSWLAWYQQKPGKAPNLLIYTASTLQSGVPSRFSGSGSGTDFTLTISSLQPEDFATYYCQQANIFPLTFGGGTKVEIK
light: DIQLTQSPSSLSASVGDRVTITCKASQDVGTSVAWYQQKPGKAPKLLIYWTSTRHTGVPSRFSGSGSGTDFTFTISSLQPEDIATYYCQQYSLYRSFGQGTKVEIKRTVAAPSVFIFPPSDEQLKSGTASVVCLLNNFYPREAKVQWKVDNALQSGNSQESVTEQDSKDSTYSLSSTLTLSKADYEKHKVYACEVTHQGLSSPVTKSFNRGEC
notes: Ly311 HC (IgG1 mutated Fc)-Ly253 scFv VH-VL + Ly311 LC
B10: Ly421 (bispecific antibody, human IgG1, kappa)
heavy: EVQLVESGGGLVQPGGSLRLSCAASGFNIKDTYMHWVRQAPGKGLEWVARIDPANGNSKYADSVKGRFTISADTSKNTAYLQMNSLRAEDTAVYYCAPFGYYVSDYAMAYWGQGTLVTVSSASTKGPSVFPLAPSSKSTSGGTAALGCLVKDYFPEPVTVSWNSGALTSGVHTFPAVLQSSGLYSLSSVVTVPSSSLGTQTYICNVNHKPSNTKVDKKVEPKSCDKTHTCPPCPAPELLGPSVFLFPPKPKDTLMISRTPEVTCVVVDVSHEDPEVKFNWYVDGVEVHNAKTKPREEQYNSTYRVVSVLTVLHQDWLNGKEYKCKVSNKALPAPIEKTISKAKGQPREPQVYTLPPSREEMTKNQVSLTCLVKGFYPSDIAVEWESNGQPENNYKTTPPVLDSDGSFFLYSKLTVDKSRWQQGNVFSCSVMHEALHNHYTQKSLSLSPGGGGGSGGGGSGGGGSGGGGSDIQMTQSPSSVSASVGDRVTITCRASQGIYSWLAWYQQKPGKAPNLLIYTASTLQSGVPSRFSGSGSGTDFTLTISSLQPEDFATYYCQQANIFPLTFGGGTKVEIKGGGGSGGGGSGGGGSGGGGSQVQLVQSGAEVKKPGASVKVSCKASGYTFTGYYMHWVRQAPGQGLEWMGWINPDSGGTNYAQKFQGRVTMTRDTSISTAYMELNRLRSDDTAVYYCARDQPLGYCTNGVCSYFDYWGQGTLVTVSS
light: DIQLTQSPSSLSASVGDRVTITCRAGESVDIFGVGFLHWYQQKPGKAPKLLIYRASNLESGVPSRFSGSGSRTDFTLTISSLQPEDFATYYCQQTNEDPYTFGQGTKVEIKRTVAAPSVFIFPPSDEQLKSGTASVVCLLNNFYPREAKVQWKVDNALQSGNSQESVTEQDSKDSTYSLSSTLTLSKADYEKHKVYACEVTHQGLSSPVTKSFNRGEC
notes: Ly312 HC (IgG1 mutated Fc)-Ly253 scFv VL-VH + Ly312 LC
B11: Ly422 (bispecific antibody, human IgG1, kappa)
heavy: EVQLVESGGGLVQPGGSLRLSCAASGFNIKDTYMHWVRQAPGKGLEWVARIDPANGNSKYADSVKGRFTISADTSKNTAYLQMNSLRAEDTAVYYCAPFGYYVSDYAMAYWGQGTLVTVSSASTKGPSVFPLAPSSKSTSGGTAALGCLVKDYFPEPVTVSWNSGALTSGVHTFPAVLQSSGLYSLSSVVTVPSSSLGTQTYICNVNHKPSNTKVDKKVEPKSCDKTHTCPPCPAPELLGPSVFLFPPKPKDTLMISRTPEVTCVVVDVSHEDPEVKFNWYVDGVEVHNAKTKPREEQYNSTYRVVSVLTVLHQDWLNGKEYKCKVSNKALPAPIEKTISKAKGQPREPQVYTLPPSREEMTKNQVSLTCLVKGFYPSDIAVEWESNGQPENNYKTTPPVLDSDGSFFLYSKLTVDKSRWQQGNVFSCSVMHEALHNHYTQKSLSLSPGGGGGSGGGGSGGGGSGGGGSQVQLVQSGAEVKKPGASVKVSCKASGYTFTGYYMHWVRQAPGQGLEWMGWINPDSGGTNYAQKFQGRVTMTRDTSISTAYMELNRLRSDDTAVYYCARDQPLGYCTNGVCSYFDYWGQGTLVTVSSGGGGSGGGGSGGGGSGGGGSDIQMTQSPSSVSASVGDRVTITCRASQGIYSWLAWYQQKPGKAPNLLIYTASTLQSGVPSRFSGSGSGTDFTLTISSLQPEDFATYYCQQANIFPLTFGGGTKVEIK
light: DIQLTQSPSSLSASVGDRVTITCRAGESVDIFGVGFLHWYQQKPGKAPKLLIYRASNLESGVPSRFSGSGSRTDFTLTISSLQPEDFATYYCQQTNEDPYTFGQGTKVEIKRTVAAPSVFIFPPSDEQLKSGTASVVCLLNNFYPREAKVQWKVDNALQSGNSQESVTEQDSKDSTYSLSSTLTLSKADYEKHKVYACEVTHQGLSSPVTKSFNRGEC
notes: Ly312 HC (IgG1 mutated Fc)-Ly253 scFv VH-VL + Ly312 LC

T1 sequence (P25942 21-277): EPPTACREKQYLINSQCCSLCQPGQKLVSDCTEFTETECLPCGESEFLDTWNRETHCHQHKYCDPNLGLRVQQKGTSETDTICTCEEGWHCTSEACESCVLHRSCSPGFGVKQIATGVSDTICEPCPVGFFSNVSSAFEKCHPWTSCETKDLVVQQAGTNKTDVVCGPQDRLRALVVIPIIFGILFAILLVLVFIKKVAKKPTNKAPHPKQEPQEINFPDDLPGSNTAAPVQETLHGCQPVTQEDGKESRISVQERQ

The assay has as its target T1, human CD40 expressed on CHO cells (human, UniProt P25942 21-277).
T1 construct: whole, on cells; also used for the reporter cells over-expressing human CD40; also called cellular CD40; CHO-CD40 cells
Kind of assay: FACS, CHO cells.
With B1, the binding result was “binds”.
B2: the binding result is reported as “binds”.
Regarding B3, the binding result is “binds”.
For the molecule B4, the binding result is “binds”.
Regarding B5, the binding result is “binds”.
Then B6, with “binds”.
Take B7: the binding result was “binds”.
The entry for B8 is “binds”; for B9 it is “binds”.
As to B10, the binding result is “binds”.
Consider B11, for which the binding result is “binds”.
